From paper PMC3485210

Experiments:
[1] = system: G44P (Bacillus subtilis bacteriophage SPP1); assay: EMSA; details: EMSA: 50 mM Tris-HCl pH 7.5, 50 mM NaCl, 50 ng/ul BSA, 5% glycerol, 1 mM EDTA, 0.2 nM DNA, 37 C, 15 min (20 min in Fig 4 legend), 6% PAGE
[2] = molecular target: gene 44 product (G44P) of Bacillus subtilis bacteriophage SPP1 (Bacillus subtilis bacteriophage SPP1); assay: SEC; FPLC gel filtration on Superdex 75 in buffer A (50 mM phosphate pH 7.5, 5% glycerol, 1 mM EDTA) with 1 M NaCl, 0.5 ml/min; 30 µg protein in 200 µl; mass from a standard curve of Kav versus log10 of molecular mass

| Substance | K half [1] | also measured |
| --- | --- | --- |
| CGCAAGCGACAGGAACCTCGAGAAGCTTCCGGTAGCAGCCTGAGCGGTGGTTGAATTCCTCGAGGTTCCTGTCGCTTGCG / CGCAAGCGACAGGAACCTCGAGGAATTCAACCACCGCTCAACTCAACTGCAGTCTAGACTCGAGGTTCCTGTCGCTTGCG / CGCAAGCGACAGGAACCTCGAGTCTAGACTGCAGTTGAGTCCTTGCTAGGACGGATCCCTCGAGGTTCCTGTCGCTTGCG / CGCAAGCGACAGGAACCTCGAGGGATCCGTCCTAGCAAGGGGCTGCTACCGGAAGCTTCTCGAGGTTCCTGTCGCTTGCG [HJ-J3] | 10 nM |  |
| CGCAAGCGACAGGAACCTCGAGGAATTCAACCACCGCTCAACTCAACTGCAGTCTAGACTCGAGGTTCCTGTCGCTTGCG (double strand) [80-bp dsDNA] |  | K half ([1]; complexes unstable in gel): 48 nM |
| DL-D (D-loop) | 5 nM |  |
| gene 44 product (G44P) of Bacillus subtilis bacteriophage SPP1 (enzyme) |  | stoichiometry N [2]: 2 |
